From the Human Domainome abundance scans (Beltran et al. 2025)
± gives the uncertainty stated by the source.

B1: Tumor protein p73, residues 487 to 549; numbered along this chain, O15350 (parent)
chain: YHADPSLVSFLTGLGCPNCIEYFTSQGLQSIYHLQNLTIEDLGALKIPEQYRMTIWRGLQDLK

Variants of: B1
Test: abundance fitness (aPCA) (normalised: wild type 0, dead -1); higher = more abundant; growth selection in yeast, the domain comes from the species named
Conditions: Homo sapiens

Variant	abundance fitness
T12L	-0.146 ± 0.034
T12G	0.1 ± 0.039
T12K	0.087 ± 0.051
T12H	0.01 ± 0.061
T12Q	0.031 ± 0.045
T12D	0.236 ± 0.099
T12V	-0.061 ± 0.028
I20E	-0.057 ± 0.047
I20L	0.038 ± 0.031
I20P	-0.626 ± 0.056
I20W	-0.36 ± 0.05
I20G	-0.269 ± 0.036
G13A	-0.021 ± 0.035
G13R	0.008 ± 0.031
G13N	0.216 ± 0.22
G13C	-0.142 ± 0.077
G13P	-0.183 ± 0.064
G13T	-0.012 ± 0.047
G13S	0.034 ± 0.038
D41H	-0.198 ± 0.068
D41C	-0.361 ± 0.07
D41P	-1.05 ± 0.15
D41Q	0.105 ± 0.057
Y1C	-0.172 ± 0.076

Variant	abundance fitness
Y1S	0.078 ± 0.05
Y1F	0.201 ± 0.078
Y1G	-0.285 ± 0.051
Y1H	-0.075 ± 0.088
N36I	-0.02 ± 0.073
N36P	-0.053 ± 0.078
N36R	0.034 ± 0.031
L45Q	-0.518 ± 0.083
L45N	-0.224 ± 0.091
L45I	0.067 ± 0.076
L45M	0.023 ± 0.038
L45D	-0.609 ± 0.15
L45A	-0.18 ± 0.042
E49N	0.077 ± 0.12
E49Q	-0.045 ± 0.064
E49H	-0.047 ± 0.051
E49K	-0.014 ± 0.05
E49F	-0.355 ± 0.23
E49D	0.105 ± 0.063
G27C	-0.448 ± 0.059
G27F	-1 ± 0.22
G27Q	-0.05 ± 0.051
G27V	-0.61 ± 0.084
S9R	0.048 ± 0.023

Variant	abundance fitness
S9A	-0.101 ± 0.043
S9L	-0.131 ± 0.039
S9C	-0.312 ± 0.059
S9G	0.103 ± 0.028
S9Q	0.095 ± 0.04
S9W	-0.411 ± 0.048
S9K	-0.017 ± 0.042
S9E	-0.019 ± 0.04
S9N	0.086 ± 0.074
S9I	-0.347 ± 0.13
P17C	-0.08 ± 0.051
P17M	-0.007 ± 0.05
P17R	-0.024 ± 0.03
P17Q	0.106 ± 0.053
P17N	-0.154 ± 0.14
P17V	0.007 ± 0.035
S6K	-0.07 ± 0.066
S6M	-0.031 ± 0.06
S6C	0.036 ± 0.067
S6L	-0.15 ± 0.056
S6V	-0.027 ± 0.043
S6F	-0.095 ± 0.072
S6H	-0.077 ± 0.089
S6T	-0.052 ± 0.04

Variant	abundance fitness
E40Q	-0.124 ± 0.085
E40D	-0.06 ± 0.071
E40K	-0.141 ± 0.069
E40R	-0.059 ± 0.035
E40G	0.053 ± 0.043
S25K	0.046 ± 0.044
S25I	-0.195 ± 0.054
S25A	0.03 ± 0.036
A3G	0.141 ± 0.038
A3M	0.349 ± 0.12
A3Q	0.311 ± 0.045
A3W	0.209 ± 0.037
A3K	0.358 ± 0.042
L7G	-0.936 ± 0.071
L7C	-0.4 ± 0.062
L7V	-0.049 ± 0.033
L7Q	-1.01 ± 0.12
L7W	-0.847 ± 0.08
K46T	-0.102 ± 0.048
K46I	-0.345 ± 0.084
K46N	0.009 ± 0.057
K46V	-0.092 ± 0.034
K46S	-0.043 ± 0.033
K46C	-0.08 ± 0.055

Variant	abundance fitness
K46W	-0.249 ± 0.037
K46G	0.025 ± 0.027
G43P	-0.012 ± 0.085
G43L	0.033 ± 0.046
G43N	-0.003 ± 0.1
G43Q	0.061 ± 0.046
G43C	-0.049 ± 0.21
G43E	0.07 ± 0.061
L62F	-0.059 ± 0.053
L62C	-0.117 ± 0.095
L62W	0.071 ± 0.039
L62E	-0.007 ± 0.038
L62K	-0.257 ± 0.08
L62N	0.058 ± 0.088
L62S	-0.083 ± 0.036
W56S	0.011 ± 0.042
W56C	-0.124 ± 0.11
W56N	-0.137 ± 0.08
W56R	-0.163 ± 0.029
W56G	-0.128 ± 0.035
W56T	0.082 ± 0.051
L37W	-0.159 ± 0.054
L37S	-0.142 ± 0.044
L37I	-0.058 ± 0.071

Variant	abundance fitness
L37T	-0.039 ± 0.065
L37Y	0.071 ± 0.11
L37R	-0.191 ± 0.034
P48V	-0.924 ± 0.089
P48K	-0.212 ± 0.043
C16Y	-0.078 ± 0.069
C16G	-0.754 ± 0.091
C16W	-0.773 ± 0.072
C16K	-0.322 ± 0.062
C16T	-0.163 ± 0.05
C16Q	-0.504 ± 0.092
C16I	0.146 ± 0.12
T54Q	0.028 ± 0.068
T54I	0.025 ± 0.062
T54Y	-0.189 ± 0.069
T54K	0.06 ± 0.047
T54R	0.02 ± 0.043
I55N	-0.559 ± 0.35
I55V	-0.041 ± 0.044
I55K	-1.01 ± 0.14
I55C	-0.459 ± 0.079
I55M	-0.241 ± 0.057
Q26T	-0.082 ± 0.06
Q26L	-0.199 ± 0.04

Variant	abundance fitness
Q26Y	-0.32 ± 0.098
Q26R	0.001 ± 0.034
Q26K	0.032 ± 0.048
E21W	-0.087 ± 0.063
E21I	-0.138 ± 0.052
E21C	-0.182 ± 0.07
E21R	-0.009 ± 0.03
E21T	-0.054 ± 0.063
E21G	0.034 ± 0.035
E21D	0.012 ± 0.065
S30Y	-0.016 ± 0.051
S30H	-0.027 ± 0.065
S30F	-0.423 ± 0.079
S30N	0.025 ± 0.055
R52I	0.2 ± 0.073
R52C	-0.131 ± 0.11
R52F	-0.53 ± 0.42
R52Q	-0.019 ± 0.046
R52P	-0.755 ± 0.095
G58I	-0.68 ± 0.38
G58S	-0.104 ± 0.047
G58Y	-0.723 ± 0.28
G58H	-0.116 ± 0.11
G58T	-0.358 ± 0.052

Variant	abundance fitness
H33E	0.003 ± 0.041
H33D	-0.017 ± 0.1
H33P	-0.127 ± 0.037
H33N	-0.027 ± 0.086
H33V	-0.059 ± 0.034
H33M	-0.088 ± 0.052
L28P	-0.286 ± 0.069
L28F	0.175 ± 0.077
L28M	0.042 ± 0.051
L28K	0.005 ± 0.043
L28V	-0.008 ± 0.028
L28N	-0.241 ± 0.072
L28T	-0.186 ± 0.046
L28R	-0.05 ± 0.027
D4W	0.181 ± 0.18
M53V	-0.061 ± 0.021
M53W	-0.04 ± 0.042
M53R	0.027 ± 0.028
M53A	-0.025 ± 0.023
T24C	-0.097 ± 0.081
T24V	-0.077 ± 0.038
T24P	-0.461 ± 0.13
T24A	-0.02 ± 0.039
T24H	-0.123 ± 0.12

Variant	abundance fitness
F23N	-0.733 ± 0.15
F23E	-1.05 ± 0.15
F23V	-0.618 ± 0.049
F23T	-0.978 ± 0.13
F23D	-1.18 ± 0.19
F23C	-0.315 ± 0.053
F23R	-1.14 ± 0.15
F23M	-0.306 ± 0.057
F23Y	-0.638 ± 0.12
F23S	-1.03 ± 0.087
C19Y	-0.233 ± 0.1
C19F	0.031 ± 0.13
C19R	-0.941 ± 0.06
C19H	-0.399 ± 0.077
C19D	-0.699 ± 0.18
C19L	0.047 ± 0.035
C19G	-0.559 ± 0.049
I39W	-0.231 ± 0.32
Q35F	-0.142 ± 0.085
Q35C	-0.07 ± 0.083
Q35S	0.071 ± 0.043
Q35P	-0.184 ± 0.073
Q35H	0.026 ± 0.055
Q35E	0.005 ± 0.066

Variant	abundance fitness
V8I	-0.053 ± 0.05
V8T	0.117 ± 0.046
V8C	0.006 ± 0.058
Q29G	-0.006 ± 0.03
Q29K	0.05 ± 0.035
Q29R	-0.063 ± 0.028
Q29E	0.05 ± 0.038
I31Q	0.026 ± 0.052
I31T	-0.005 ± 0.05
I31L	0.035 ± 0.037
I31A	0.004 ± 0.043
I31V	0.042 ± 0.036
G15F	-0.508 ± 0.097
G15L	-0.616 ± 0.065
G15K	-0.062 ± 0.058
G15C	-0.226 ± 0.063
G15A	-0.124 ± 0.043
G15Y	-0.462 ± 0.084
K63N	-0.245 ± 0.3
K63W	-0.044 ± 0.25
K63E	0.103 ± 0.063
K63C	-0.239 ± 0.088
L42S	-0.785 ± 0.08
L42F	0.012 ± 0.07

Variant	abundance fitness
L42T	-0.45 ± 0.062
Y22D	-0.101 ± 0.063
Y22N	0.002 ± 0.12
Y22W	-0.261 ± 0.041
Y22I	-0.108 ± 0.12
Y22T	-0.04 ± 0.041
Y22K	-0.047 ± 0.042
Q60Y	0.06 ± 0.1
Q60I	0.034 ± 0.066
Q60M	0.031 ± 0.046
Q60D	-0.01 ± 0.058
Q60A	0.047 ± 0.027
Q60H	-0.246 ± 0.083
A44R	0.135 ± 0.028
A44E	0.16 ± 0.055
A44L	0.06 ± 0.034
A44F	0.011 ± 0.095
A44C	0.02 ± 0.058
A44T	-0.046 ± 0.063
A44D	0.174 ± 0.085
L59H	-0.801 ± 0.18
L59N	-0.631 ± 0.13
L59T	-0.157 ± 0.05
L59R	-0.733 ± 0.063

Variant	abundance fitness
L59V	0.046 ± 0.056
L59M	-0.042 ± 0.078
I47Y	-0.824 ± 0.17
I47N	-0.413 ± 0.15
I47S	-0.95 ± 0.083
I47W	-0.925 ± 0.053
I47K	-0.929 ± 0.17
F10P	-0.748 ± 0.24
F10D	-1.06 ± 0.16
F10E	-1.02 ± 0.17
F10Y	-0.294 ± 0.074
F10C	-0.588 ± 0.14
F10Q	-0.865 ± 0.21
Y51H	-0.086 ± 0.097
Y51C	-0.083 ± 0.071
Y51L	-0.116 ± 0.058
Y51R	-0.137 ± 0.04
Y51E	-0.09 ± 0.049
Y51F	-0.032 ± 0.14
P5I	0.209 ± 0.057
P5W	0.021 ± 0.043
P5F	0.046 ± 0.21
P5E	0.24 ± 0.049
N18M	-0.163 ± 0.047

Variant	abundance fitness
N18V	-0.055 ± 0.043
N18C	-0.125 ± 0.095
N18G	0.061 ± 0.039
N18L	-0.139 ± 0.035
N18A	0.042 ± 0.038
N18K	-0.163 ± 0.045
N18Q	-0.03 ± 0.037
L34T	0.018 ± 0.045
L34A	0.048 ± 0.039
L34E	-0.638 ± 0.062
L34Q	-0.529 ± 0.073
T38Q	-0.018 ± 0.027
T38L	-0.158 ± 0.037
T38H	-0.064 ± 0.068
T38N	-0.11 ± 0.12
T38M	-0.13 ± 0.049
L11E	-0.825 ± 0.1
L11D	-1.14 ± 0.22
L11H	-0.806 ± 0.34
R57Y	-0.023 ± 0.056
R57V	-0.255 ± 0.051
R57G	-0.01 ± 0.046
R57A	-0.068 ± 0.041
D61W	-0.127 ± 0.056

Variant	abundance fitness
D61R	-0.066 ± 0.034
D61F	-0.572 ± 0.25
D61E	-0.068 ± 0.068
D61Q	-0.126 ± 0.053
D61Y	-0.157 ± 0.1
D61M	-0.002 ± 0.053
D61C	-0.245 ± 0.11
D61N	-0.046 ± 0.041
Y32M	-0.068 ± 0.064
Y32P	-0.04 ± 0.07
Y32G	0.104 ± 0.027
Y32F	0.069 ± 0.061
Y32D	0.03 ± 0.071
Y32K	0.137 ± 0.1
H2D	-0.073 ± 0.095
H2V	-0.004 ± 0.043
L14S	-0.407 ± 0.063
L14H	-0.231 ± 0.082
L14Q	-0.298 ± 0.077
L14M	-0.136 ± 0.057
L14W	-0.542 ± 0.073
L14T	-0.307 ± 0.066
